The test addresses CdiI^YPIII immunity protein from Yersinia pseudotuberculosis YPIII, His6-tagged (Yersinia pseudotuberculosis YPIII). Nature of the test: BLI.

In general, Kd refers to the concentration at which binding is half-saturated. Read a low Kd as a tighter complex.

For “CdiA-CT^YPIII, C-terminal toxin domain of CdiA from Yersinia pseudotuberculosis YPIII (domain or fragment)”, the dissociation constant (Kd) is 16 nM.

For the origin of these results see paper PMC4658667.
